# Results from patent US20220017863A1 (H LEE MOFFITT CANCER CENTER AND RESEARCH INSTITUTE, published 2022).
# T1: phosphofructokinase P (PFKP) (mouse, UniProt Q9WUA3 1-784)
# T1 sequence (looked up): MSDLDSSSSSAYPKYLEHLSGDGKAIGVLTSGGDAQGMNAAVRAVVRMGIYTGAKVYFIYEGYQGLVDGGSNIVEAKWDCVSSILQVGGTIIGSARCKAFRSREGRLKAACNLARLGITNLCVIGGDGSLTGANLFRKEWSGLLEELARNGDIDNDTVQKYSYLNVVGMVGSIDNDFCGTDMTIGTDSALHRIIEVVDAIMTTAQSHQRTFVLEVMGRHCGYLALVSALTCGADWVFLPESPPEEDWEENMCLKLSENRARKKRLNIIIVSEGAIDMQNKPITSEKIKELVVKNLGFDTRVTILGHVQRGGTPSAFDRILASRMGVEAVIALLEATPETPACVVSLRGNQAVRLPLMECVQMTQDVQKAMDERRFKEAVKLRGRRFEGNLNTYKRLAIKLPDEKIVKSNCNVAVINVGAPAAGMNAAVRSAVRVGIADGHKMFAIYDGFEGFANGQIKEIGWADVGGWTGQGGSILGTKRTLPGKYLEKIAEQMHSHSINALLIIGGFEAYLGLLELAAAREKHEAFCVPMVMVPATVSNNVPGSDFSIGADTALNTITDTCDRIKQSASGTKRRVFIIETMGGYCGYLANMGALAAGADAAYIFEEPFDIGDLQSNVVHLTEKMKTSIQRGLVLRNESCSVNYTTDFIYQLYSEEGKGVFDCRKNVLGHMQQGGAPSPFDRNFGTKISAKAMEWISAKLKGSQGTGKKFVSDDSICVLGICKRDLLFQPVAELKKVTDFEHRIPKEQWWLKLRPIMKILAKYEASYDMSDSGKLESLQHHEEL
# T2: oxoglutarate dehydrogenase (OGDH) (mouse, UniProt Q60597 41-1023, limits assumed)
# T2 construct: Endogenous protein in lysate
# T2 sequence (looked up): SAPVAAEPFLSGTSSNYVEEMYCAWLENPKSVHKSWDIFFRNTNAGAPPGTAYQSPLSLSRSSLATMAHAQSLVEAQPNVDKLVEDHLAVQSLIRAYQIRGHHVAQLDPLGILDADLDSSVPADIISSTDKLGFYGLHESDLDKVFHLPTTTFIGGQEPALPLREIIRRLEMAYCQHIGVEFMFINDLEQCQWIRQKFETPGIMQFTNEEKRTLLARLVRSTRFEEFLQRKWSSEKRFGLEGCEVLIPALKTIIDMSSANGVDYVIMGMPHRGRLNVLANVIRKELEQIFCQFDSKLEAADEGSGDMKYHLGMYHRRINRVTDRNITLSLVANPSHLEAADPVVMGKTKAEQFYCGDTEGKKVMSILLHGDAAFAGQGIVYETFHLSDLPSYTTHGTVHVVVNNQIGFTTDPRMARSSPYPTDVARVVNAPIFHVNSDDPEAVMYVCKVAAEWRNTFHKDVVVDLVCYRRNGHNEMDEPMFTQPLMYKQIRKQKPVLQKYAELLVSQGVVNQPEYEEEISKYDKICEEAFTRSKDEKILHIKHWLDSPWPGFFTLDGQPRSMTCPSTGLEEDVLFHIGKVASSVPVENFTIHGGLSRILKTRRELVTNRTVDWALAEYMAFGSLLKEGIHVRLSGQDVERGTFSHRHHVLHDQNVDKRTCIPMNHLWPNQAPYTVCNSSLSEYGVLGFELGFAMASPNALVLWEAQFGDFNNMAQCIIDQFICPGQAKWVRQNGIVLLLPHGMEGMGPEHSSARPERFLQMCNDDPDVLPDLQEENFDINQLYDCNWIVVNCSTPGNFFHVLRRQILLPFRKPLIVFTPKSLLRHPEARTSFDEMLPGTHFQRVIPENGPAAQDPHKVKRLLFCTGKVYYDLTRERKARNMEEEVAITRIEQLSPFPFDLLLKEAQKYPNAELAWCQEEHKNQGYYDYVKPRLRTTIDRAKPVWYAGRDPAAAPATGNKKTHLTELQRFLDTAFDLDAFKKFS
# T3: phosphoglycerate kinase 1 (PGK1) (mouse, UniProt P09411 2-417)
# T3 sequence (looked up): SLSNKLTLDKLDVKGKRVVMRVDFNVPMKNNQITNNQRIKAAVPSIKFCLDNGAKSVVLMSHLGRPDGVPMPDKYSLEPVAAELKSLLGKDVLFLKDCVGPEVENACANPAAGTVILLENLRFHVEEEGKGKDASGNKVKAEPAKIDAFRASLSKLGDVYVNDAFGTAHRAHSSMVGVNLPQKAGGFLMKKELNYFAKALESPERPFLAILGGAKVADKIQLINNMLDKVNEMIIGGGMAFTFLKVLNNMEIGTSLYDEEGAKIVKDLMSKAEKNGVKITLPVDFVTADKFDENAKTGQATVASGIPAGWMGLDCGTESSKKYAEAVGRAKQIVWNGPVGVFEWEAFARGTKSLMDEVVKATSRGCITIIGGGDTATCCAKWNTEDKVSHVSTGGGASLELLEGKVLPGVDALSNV
# T4: aconitase 2 (ACO2) (mouse, UniProt Q99KI0 28-780)
# T4 sequence (looked up): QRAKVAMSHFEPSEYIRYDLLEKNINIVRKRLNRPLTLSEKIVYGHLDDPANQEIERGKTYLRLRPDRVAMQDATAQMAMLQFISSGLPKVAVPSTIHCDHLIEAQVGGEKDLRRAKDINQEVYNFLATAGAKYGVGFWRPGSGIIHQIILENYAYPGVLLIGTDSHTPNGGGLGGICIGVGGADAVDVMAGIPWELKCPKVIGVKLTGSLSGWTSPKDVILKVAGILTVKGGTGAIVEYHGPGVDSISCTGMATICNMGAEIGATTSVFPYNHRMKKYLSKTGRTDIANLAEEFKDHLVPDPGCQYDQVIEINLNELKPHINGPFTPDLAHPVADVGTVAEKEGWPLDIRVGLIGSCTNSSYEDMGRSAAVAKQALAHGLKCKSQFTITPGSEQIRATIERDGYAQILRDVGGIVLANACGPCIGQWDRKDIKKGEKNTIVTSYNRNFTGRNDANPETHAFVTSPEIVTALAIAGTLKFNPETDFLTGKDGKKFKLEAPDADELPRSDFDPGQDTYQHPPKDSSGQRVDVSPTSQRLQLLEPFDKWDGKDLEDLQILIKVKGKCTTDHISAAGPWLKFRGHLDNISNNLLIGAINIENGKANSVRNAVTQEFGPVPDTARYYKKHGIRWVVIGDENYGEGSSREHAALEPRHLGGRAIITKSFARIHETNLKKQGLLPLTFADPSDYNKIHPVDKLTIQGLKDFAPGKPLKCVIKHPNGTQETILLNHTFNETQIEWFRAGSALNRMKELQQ
# T5: Hexokinase 1 (HK1) (mouse, UniProt P17710-3 1-918, limits assumed)
# T5 construct: Endogenous protein in lysate
# T5 sequence (looked up): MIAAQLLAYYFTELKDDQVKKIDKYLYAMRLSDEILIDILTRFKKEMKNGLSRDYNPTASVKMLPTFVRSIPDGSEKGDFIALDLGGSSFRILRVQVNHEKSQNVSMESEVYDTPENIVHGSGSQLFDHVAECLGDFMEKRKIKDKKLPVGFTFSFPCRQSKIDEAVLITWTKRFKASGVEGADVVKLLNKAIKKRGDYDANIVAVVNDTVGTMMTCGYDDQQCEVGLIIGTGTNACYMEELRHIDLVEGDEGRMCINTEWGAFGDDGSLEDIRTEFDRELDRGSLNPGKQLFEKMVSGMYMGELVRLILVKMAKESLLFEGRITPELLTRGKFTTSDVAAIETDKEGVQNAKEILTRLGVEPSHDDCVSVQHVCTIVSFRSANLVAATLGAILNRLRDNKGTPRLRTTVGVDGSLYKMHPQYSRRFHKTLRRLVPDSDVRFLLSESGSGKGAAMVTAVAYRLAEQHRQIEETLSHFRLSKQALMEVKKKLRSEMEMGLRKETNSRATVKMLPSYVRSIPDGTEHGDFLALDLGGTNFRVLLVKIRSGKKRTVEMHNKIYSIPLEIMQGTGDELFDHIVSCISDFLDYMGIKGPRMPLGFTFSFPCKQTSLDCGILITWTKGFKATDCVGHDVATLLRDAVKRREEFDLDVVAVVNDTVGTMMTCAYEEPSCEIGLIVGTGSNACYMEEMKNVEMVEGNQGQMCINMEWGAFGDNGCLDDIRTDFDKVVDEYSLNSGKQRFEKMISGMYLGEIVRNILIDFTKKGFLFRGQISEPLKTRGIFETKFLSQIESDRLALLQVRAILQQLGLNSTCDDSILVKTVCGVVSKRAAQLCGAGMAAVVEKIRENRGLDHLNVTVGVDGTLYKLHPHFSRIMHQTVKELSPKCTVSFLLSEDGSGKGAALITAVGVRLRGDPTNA
# T6: alanine, serine, cysteine-preferring transporter 2 (ASCT2) (mouse, UniProt P51912 1-553)
# T6 construct: Endogenous protein in lysate; also called Glutamine transporter ASCT2; ACST2
# T6 sequence (looked up): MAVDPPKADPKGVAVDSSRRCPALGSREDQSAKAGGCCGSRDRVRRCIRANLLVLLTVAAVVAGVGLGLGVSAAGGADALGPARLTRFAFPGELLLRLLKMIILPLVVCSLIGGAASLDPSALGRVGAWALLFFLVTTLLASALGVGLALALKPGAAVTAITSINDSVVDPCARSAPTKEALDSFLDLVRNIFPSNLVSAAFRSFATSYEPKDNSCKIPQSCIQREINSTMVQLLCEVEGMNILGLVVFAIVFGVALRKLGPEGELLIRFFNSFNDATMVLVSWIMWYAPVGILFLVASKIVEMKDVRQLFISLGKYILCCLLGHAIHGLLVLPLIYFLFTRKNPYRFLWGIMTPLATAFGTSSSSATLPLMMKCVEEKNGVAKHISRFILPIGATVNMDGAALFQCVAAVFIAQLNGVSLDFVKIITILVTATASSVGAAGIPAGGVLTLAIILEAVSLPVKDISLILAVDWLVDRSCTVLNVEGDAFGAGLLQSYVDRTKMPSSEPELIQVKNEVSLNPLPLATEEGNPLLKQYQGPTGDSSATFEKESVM
# B1: aldolase A (ALDOA) (enzyme, mouse, UniProt P05064 2-364, looked up)
# chain: PHPYPALTPEQKKELSDIAHRIVAPGKGILAADESTGSIAKRLQSIGTENTEENRRFYRQLLLTADDRVNPCIGGVILFHETLYQKADDGRPFPQVIKSKGGVVGIKVDKGVVPLAGTNGETTTQGLDGLSERCAQYKKDGADFAKWRCVLKIGEHTPSALAIMENANVLARYASICQQNGIVPIVEPEILPDGDHDLKRCQYVTEKVLAAVYKALSDHHVYLEGTLLKPNMVTPGHACTQKFSNEEIAMATVTALRRTVPPAVTGVTFLSGGQSEEEASINLNAINKCPLLKPWALTFSYGRALQASALKAWGGKKENLKAAQEEYIKRALANSLACQGKYTPSGQSGAAASESLFISNHAY
# notes: also called Aldolase 1
# B2: Sirt2 (enzyme, mouse, UniProt Q8VDQ8 2-389, looked up)
# chain: AEPDPSDPLETQAGKVQEAQDSDSDTEGGATGGEAEMDFLRNLFTQTLGLGSQKERLLDELTLEGVTRYMQSERCRKVICLVGAGISTSAGIPDFRSPSTGLYANLEKYHLPYPEAIFEISYFKKHPEPFFALAKELYPGQFKPTICHYFIRLLKEKGLLLRCYTQNIDTLERVAGLEPQDLVEAHGTFYTSHCVNTSCRKEYTMGWMKEKIFSEATPRCEQCQSVVKPDIVFFGENLPSRFFSCMQSDFSKVDLLIIMGTSLQVQPFASLISKAPLATPRLLINKEKTGQTDPFLGMMMGLGGGMDFDSKKAYRDVAWLGDCDQGCLALADLLGWKKELEDLVRREHANIDAQSGSQAPNPSTTISPGKSPPPAKEAARTKEKEEQQ
# notes: Endogenous protein immunoprecipitated from T cell lysates with anti-Sirt2 (Sigma #9441); also called Sirtuin 2
# B3: succinate-CoA ligase alpha subunit (SUCLG1) (enzyme)
# chain: not shown
# notes: also called succinyl-CoA ligase alpha subunit; Succinyl-CoA Ligase
# Tests used:
# Sirt2 = molecular target: B2; experiment: co-IP/immunoblot and reverse co-IP/immunoblot, activated WT mouse CD3+ T cell extracts
# [1] = molecular target: T1, phosphofructokinase P (PFKP); experiment: as above
# [2] = molecular target: T2, oxoglutarate dehydrogenase (OGDH); experiment: as above
# [3] = molecular target: T3, phosphoglycerate kinase 1 (PGK1); experiment: as above
# aconitase 2 (ACO2) = molecular target: T4, aconitase 2 (ACO2); experiment: as above
# pyruvate kinase M (PKM) = molecular target: T7, pyruvate kinase M (PKM) (mouse, UniProt P52480 1-531, limits assumed); experiment: reverse co-IP with antibody to the enzyme, anti-Sirt2 immunoblot, activated WT mouse CD3+ T cell extracts (FIG. 3C)
# T7 construct: also called PKM1/2; pyruvate kinase isozymes M1/M2
# Hexokinase 1 (HK1) = molecular target: T5, Hexokinase 1 (HK1); experiment: co-IP with anti-Sirt2, immunoblot, activated WT mouse CD3+ T cell extracts (FIG. 3B)
# [4] = molecular target: succinate dehydrogenase subunit alpha (SDHA) (mouse, UniProt Q8K2B3 43-664); experiment: IP of Sirt2, LC-MS/MS, activated WT mouse CD3+ T cell extracts
# [5] = molecular target: T6, alanine, serine, cysteine-preferring …; experiment: as above
# Sequence of succinate dehydrogenase subunit alpha (SDHA) (Q8K2B3 43-664 limits assumed): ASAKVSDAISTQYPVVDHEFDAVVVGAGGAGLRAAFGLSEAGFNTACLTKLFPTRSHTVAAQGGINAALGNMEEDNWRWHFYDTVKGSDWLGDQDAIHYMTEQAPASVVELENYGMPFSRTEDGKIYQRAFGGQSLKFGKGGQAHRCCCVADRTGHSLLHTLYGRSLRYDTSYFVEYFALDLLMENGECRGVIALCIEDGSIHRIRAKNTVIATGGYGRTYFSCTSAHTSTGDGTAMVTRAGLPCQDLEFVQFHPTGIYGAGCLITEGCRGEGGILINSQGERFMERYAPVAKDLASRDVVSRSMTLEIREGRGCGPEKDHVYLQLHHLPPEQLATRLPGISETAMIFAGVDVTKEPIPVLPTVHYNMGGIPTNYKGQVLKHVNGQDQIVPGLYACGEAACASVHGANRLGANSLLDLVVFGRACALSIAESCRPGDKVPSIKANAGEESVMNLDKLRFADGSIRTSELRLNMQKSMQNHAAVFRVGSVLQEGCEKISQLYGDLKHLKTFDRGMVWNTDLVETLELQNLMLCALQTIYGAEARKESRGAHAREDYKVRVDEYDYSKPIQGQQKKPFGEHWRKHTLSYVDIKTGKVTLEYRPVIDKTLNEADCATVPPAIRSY
# T7 sequence (P52480 whole entry): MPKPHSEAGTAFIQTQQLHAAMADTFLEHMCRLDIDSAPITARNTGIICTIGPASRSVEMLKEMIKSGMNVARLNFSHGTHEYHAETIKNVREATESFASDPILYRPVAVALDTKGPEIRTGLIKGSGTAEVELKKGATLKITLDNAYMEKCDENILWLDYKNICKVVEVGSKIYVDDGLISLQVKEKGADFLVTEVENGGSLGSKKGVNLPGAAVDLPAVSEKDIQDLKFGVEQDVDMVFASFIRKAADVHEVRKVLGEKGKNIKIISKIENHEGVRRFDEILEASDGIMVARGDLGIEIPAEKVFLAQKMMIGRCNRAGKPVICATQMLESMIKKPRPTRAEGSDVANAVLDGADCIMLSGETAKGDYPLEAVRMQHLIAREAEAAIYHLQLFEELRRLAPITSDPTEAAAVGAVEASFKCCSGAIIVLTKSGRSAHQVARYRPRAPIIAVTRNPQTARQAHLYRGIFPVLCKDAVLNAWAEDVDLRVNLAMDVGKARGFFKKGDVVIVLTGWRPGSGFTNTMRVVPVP
binding result (Sirt2),binding result [1],binding result [2],binding result [3],binding result (aconitase 2 (ACO2)),binding result (pyruvate kinase M (PKM)),binding result (Hexokinase 1 (HK1)),binding result [4],binding result [5],Binder
binds,,,,,,,,,B1
,binds,binds,binds,binds,binds,binds,binds,binds,B2
binds,,,,,,,,,B3
